# Measurements as given in patent US20210079099A1 (VESTLANDETS INNOVASJONSSELSKAP, published 2021).
# B1: monoclonal mouse antibody 234 H11E8 produced by the hybridoma deposited as DSM ACC3319 (antibody, V domains shown)
# VH: QVQLKESGPGLVAPSQSLSITCTVSGFSLTNSAVHWVRQSPGKGLEWLGVVWSYGSTDYNAAFISRLSITKDNSKSQVFFKMNSLQADDTAIYYCARSQIYADYYDYFDYWGQGTTLTVSS
# VL: DIQMTQSTSSLSASLGDRVTISCRASQDISNFLNWSQQKPDGTVKLLIYYTSRLHSGVPSRFSGSGSGTDYSLTISNLEQEDIGTYFCQQGNTLPLTFGAGTKLELR
# notes: Mouse anti-human alpha-11 IgG from a hybridoma (NT-HRM mice); used as hybridoma supernatant or mAb; constant regions are not; also called 234H11E8 mAb; α11 234H11E8 mAb
# B2: monoclonal mouse antibody 203 E1H5 produced by the hybridoma deposited as DSM ACC3318 (antibody, V domains shown)
# VH: QVQLKESGPGLVAPSQSLSITCTVSGFSLTNYAVHWVRQSPGKGLEWLGVIWSYGSTDYNAAFISKLSISKDNSKSQVFFTMSSLQADDTAIYYCARSQIYGGFYDFFDFWGQGTTLTVSS
# VL: CDIQMTQTPSSLSASLGDRVTIICRASQDISNFLNWFQQKPDGTIKLLIYYSSRLHSGVPSRFSGSGSGTDYSLTISNLEQEDLATYFCQQGNTLPLTFGAGTKLELT
# notes: Mouse anti-human alpha-11 IgG from a hybridoma (NT-HRM mice); used as hybridoma supernatant or mAb; also called 203E1H5 mAb; α11 203E1H5 mAb
# Key:
# Experiment in all cases: flow cytometry on fixed transfected C2C12 cells
# [1] = target: T1, human integrin alpha-2-mCherry expressed on C2C12 cells (human, UniProt P17301 30-1181)
# T1 construct: whole, on cells; Transfected C2C12 cells fixed with 2% paraformaldehyde/PBS before staining; not shown: mCherry tag
# T1 sequence (looked up): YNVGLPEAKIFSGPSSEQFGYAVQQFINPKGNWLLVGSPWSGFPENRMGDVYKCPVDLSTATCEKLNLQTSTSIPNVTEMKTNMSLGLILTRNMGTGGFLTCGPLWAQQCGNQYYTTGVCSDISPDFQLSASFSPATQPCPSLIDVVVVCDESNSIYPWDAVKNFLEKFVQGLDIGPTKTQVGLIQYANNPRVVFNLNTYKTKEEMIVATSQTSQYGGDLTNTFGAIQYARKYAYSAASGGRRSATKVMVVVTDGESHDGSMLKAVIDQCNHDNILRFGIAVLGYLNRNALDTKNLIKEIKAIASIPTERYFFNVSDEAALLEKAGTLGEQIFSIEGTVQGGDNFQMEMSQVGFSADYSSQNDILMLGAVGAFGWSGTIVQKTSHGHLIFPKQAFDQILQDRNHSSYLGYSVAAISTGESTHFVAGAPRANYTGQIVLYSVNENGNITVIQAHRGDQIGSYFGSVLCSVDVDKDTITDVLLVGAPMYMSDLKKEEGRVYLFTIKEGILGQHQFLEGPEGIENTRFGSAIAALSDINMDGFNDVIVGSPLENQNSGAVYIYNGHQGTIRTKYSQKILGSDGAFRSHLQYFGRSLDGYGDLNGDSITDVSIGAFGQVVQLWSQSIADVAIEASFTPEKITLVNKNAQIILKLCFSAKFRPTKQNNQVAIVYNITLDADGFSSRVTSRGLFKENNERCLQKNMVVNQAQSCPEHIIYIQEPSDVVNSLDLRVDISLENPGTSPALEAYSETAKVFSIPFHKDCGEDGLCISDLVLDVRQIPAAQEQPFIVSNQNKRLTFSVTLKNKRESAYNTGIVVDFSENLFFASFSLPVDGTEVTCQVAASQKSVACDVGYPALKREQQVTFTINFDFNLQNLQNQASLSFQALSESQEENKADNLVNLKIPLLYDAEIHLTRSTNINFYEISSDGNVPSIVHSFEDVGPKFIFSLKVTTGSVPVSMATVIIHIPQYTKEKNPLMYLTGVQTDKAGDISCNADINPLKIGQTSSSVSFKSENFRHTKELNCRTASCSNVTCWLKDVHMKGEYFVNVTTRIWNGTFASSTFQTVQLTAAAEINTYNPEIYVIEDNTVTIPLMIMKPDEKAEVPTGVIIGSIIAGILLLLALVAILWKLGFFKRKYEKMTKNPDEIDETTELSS
# Method: (§1) To identify the epitope of the deposited integrin alpha-11 monoclonal antibodies. C2C12 cells were transfected with plasmids containing cDNAs encoding human integrin alpha-2-mCherry, human integrin alpha-11-EGFP, chimeric alpha-11Ialpha2mCherry or chimeric alpha-21-alpha-11EGFP as shown in FIG. 4a. Transfection was conducted as described in the art. 2% paraformaldehyde/PBS fixed transfected C2C12 cells were incubated with either antibody 203E1H5, see FIG. 4b or with antibody 234H11E8, see FIG. 4c, mouse anti-human alpha-11 IgG antibodies according to the present invention and then incubated with conjugated goat-anti mouse IgG, Alexa Fluor® 647 and analysed using a FACS Accuri measuring the dye accordingly.
# [2] = target: T2, human integrin α11-EGFP expressed on C2C12 mouse myoblast cells (human, UniProt Q9UKX5 23-1188)
# T2 construct: whole, on cells; Alpha chain fused to EGFP, expressed in mouse C2C12 cells, which express no human integrins; the beta-1 partner chain on these cells is not described; In the Western blot the cell lysate was used; also called C2C12-α11 EGFP; C2C12-hu α11-EGFP; not shown: EGFP tag
# T2 sequence (looked up): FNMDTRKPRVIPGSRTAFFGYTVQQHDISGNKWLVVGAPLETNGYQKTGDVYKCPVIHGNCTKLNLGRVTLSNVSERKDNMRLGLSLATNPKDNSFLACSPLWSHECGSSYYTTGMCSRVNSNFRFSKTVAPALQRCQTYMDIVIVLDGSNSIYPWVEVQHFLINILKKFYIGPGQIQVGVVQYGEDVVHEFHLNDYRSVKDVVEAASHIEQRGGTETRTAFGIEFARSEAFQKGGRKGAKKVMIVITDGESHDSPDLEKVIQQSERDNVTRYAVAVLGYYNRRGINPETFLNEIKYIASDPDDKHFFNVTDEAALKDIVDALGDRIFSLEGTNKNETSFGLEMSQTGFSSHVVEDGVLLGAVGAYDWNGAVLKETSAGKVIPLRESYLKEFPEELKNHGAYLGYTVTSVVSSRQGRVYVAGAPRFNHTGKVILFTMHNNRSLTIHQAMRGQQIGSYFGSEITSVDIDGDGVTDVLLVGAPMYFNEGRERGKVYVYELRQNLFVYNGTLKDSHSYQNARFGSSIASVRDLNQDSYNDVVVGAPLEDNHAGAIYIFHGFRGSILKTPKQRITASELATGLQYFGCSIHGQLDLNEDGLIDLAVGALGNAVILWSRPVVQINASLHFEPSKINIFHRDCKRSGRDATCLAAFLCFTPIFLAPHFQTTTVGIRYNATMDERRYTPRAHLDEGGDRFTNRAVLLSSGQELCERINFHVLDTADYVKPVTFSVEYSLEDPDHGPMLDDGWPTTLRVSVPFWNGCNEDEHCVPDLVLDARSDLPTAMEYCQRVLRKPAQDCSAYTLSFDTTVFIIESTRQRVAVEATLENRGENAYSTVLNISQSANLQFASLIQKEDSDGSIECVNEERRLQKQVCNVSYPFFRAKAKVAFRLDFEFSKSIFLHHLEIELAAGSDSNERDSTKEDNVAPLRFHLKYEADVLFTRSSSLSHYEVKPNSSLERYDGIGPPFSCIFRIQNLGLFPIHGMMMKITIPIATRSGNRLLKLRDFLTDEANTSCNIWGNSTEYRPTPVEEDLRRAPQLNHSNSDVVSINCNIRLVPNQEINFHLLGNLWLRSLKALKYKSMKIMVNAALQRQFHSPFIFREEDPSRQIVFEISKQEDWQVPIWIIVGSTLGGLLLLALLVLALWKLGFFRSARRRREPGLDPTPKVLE
# Method: as §1
# [3] = target: T3, chimeric human integrin alpha-2 carrying the alpha-11 I-domain, mCherry fusion, on C2C12 cells (human, UniProt P17301 30-168; Q9UKX5 161-355; P17301 367-1181)
# T3 construct: also called chimeric alpha-11Ialpha2mCherry; not shown: mCherry tag
# T3 sequence (looked up): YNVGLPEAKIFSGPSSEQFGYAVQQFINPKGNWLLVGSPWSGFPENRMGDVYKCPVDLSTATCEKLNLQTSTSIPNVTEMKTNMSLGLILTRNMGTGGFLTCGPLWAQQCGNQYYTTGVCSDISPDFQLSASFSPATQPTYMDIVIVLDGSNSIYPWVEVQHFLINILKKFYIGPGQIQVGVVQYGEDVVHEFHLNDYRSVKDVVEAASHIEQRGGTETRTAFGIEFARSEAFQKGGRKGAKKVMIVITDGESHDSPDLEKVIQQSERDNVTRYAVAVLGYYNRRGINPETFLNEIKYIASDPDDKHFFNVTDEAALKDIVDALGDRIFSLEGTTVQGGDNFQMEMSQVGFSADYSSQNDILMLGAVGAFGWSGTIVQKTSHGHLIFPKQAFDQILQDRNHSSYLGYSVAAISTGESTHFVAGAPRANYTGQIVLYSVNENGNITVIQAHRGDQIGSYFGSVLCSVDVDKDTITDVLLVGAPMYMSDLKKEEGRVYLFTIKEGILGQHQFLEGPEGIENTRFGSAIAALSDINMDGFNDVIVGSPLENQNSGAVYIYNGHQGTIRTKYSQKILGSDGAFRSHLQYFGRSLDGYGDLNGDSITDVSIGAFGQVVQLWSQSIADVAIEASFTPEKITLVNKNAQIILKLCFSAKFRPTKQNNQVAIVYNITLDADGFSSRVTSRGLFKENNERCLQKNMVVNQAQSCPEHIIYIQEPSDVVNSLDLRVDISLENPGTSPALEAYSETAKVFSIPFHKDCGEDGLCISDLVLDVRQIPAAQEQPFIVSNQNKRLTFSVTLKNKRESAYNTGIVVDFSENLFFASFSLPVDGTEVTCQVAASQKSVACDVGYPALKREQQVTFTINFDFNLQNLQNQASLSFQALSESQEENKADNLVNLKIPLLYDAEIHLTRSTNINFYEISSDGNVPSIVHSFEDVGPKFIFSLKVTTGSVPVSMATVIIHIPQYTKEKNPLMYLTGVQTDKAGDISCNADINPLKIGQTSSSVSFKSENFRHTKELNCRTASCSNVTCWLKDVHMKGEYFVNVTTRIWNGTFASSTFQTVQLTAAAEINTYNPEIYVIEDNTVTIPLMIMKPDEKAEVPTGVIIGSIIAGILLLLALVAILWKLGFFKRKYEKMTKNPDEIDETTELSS
# Method: as §1
Binder,binding result [1],binding result [2],binding result [3]
B1,no binding,binds,no binding
B2,no binding,,no binding
